The source of these data is US20180282719A1 (published 2018).

In experiment [1] the target is T1, recombinant soluble human IL-6 receptor (SR344) (human, UniProt P08887 20-344, biotinylated (sites not given) where immobilized via streptavidin or used in phage ELISA).
T1 construct: also called soluble IL-6 receptor; membrane-type IL-6 receptor (when biotinylated and immobilized on the chip)
T1 sequence (looked up): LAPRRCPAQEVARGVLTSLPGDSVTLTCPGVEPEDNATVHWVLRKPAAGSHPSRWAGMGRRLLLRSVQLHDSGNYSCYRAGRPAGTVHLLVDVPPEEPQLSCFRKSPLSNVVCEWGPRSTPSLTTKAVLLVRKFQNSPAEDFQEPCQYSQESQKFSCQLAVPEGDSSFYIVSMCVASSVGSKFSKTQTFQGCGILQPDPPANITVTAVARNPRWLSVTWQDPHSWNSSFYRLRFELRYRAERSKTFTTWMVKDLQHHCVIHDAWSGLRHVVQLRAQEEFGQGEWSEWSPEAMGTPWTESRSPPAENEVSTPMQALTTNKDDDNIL
Kind of experiment: SPR Biacore T100, antibody captured by anti-IgG gamma chain F(ab)2, SR344 analyte, pH 7.4, 37 C. As for the experimental part: Kinetic analyses of antigen-antibody reactions at pH 7.4 were carried out on the four types of antibodies, i.e., the humanized PM1 antibody (wild type: WT), and […], H3pI/L73-IgG1, Fv2-IgG1, and Fv4-IgG1 constructed in Examples 2 and 10, by using a Biacore T100™ surface plasmon resonance system (GE Healthcare) (buffer: 10 mM MES (pH 7.4), 150 mM NaCl, 0.05% TWEEN® 20 (polyoxyethelene sorbitan monolaurate)). Each antibody was bound on a sensor chip on which an anti-IgG γ chain specific F(ab)₂ (Pierce) was immobilized by amine coupling, and then, SR344 adjusted to a concentration of 9.8 to 40 nM was injected thereto as an analyte. The association to and dissociation from SR344 were observed on a real-time basis for the pH-dependent-binding clones. All the measurements were carried out at 37° C. Association rate constants kₐ (1/Ms) and dissociation rate constants kd (1/s) were calculated using Biacore T100™ Evaluation Software (GE Healthcare), and dissociation constants KD (M) were calculated on the basis of those values (Table 7).

Experiment [2] deals with T1, recombinant soluble human IL-6 receptor …. Kind of experiment: SPR Biacore T100, antibody on protein A/G chip, SR344 analyte, pH 7.4, 37 C. On the procedure:
Kinetic analyses of antigen-antibody reactions at pH 5.8 and pH 7.4 were carried out using a Biacore™ T100 surface plasmon resonance system (GE Healthcare) on the four antibodies: humanized PM1 antibody (WT) and H3pI/L73, CLH5/L73, and H170/L82 produced in Examples 2 and 4 (buffer: 10 mM MES (pH 7.4 or pH 5.8), 150 mM NaCl, and 0.05% TWEEN® 20 (polyoxyethelene sorbitan monolaurate)). Various antibodies were bound onto a sensor chip immobilized with recomb-protein A/G (Pierce) by amine coupling. SR344 adjusted to concentrations of 9.8 to 400 nM was injected to the chip as an analyte. […] All the measurements were carried out at 37° C. Association rate constants kₐ (1/Ms) and dissociation rate constants kd (1/s) were calculated using Biacore T100™ Evaluation Software (GE Healthcare), and dissociation constants KD (M) were calculated on the basis of those values (Table 5). Moreover, the ratio of the affinities at pH 5.8 and pH 7.4 were calculated for each clone to evaluate pH-dependent binding. All the measurements were carried out at 37° C.

The target is the same in experiment [3]. Nature of the experiment: SPR Biacore T100, biotinylated SR344 on streptavidin chip (model of membrane-type IL-6 receptor), antibody as analyte, 37 C.

Positions count from the first letter of the chain named.

B1: humanized PM1 antibody (wild type, WT) (antibody, human IgG1, kappa, V domains shown)
VH: QVQLQESGPGLVRPSQTLSLTCTVSGYSITSDHAWSWVRQPPGRGLEWIGYISYSGITTYNPSLKSRVTMLRDTSKNQFSLRLSSVTAADTAVYYCARSLARTTAMDYWGQGSLVTVSS
VL: DIQMTQSPSSLSASVGDRVTITCRASQDISSYLNWYQQKPGKAPKLLIYYTSRLHSGVPSRFSGSGSGTDFTFTISSLQPEDIATYYCQQGNTLPYTFGQGTKVEIKR
notes: IgG1; also called WT-IgG1; wild type humanized anti-IL-6 receptor antibody
B1: in experiment [1], the Kd is 2.7 nM, the koff was 0.0011 s⁻¹ and the kon was 400000 M⁻¹ s⁻¹. In addition, in experiment [2], the Kd worked out at 2.1 nM, the off-rate (koff) came to 0.001 s⁻¹ and the kon came out at 510000 M⁻¹ s⁻¹. For the same molecule, the “kd (pH 5.8)/kd (pH 7.4)” value in experiment [3] was 1.

B2: H3pI/L73 (antibody, IgG1, V domains shown)
VH: QVQLQESGPGLVKPSETLSLTCAVSGHSISHDHAHSWVRQPPGEGLEWIGYISYSGITNYNPSLKGRVTISRDTSKNQFSLKLSSVTAADTAAYYCARSLARTTAMDYWGEGTLVTVSS
VL: DIQMTQSPSSLSASVGDSVTITCQASQHISSHLNWYQQKPGKAPELLIYYGSHLHSGVPSRFSGSGSGTDFTFTISSLEAEDAATYYCGQGNRLPYTFGQGTKVEIE
notes: tested as IgG1; also called H3pI/L73-IgG1; H3pl/L73
B2: in experiment [1], the Kd was determined as 1.4 nM, the koff came to 0.00059 s⁻¹ and the kon came to 410000 M⁻¹ s⁻¹. In addition, in experiment [2], the Kd is 1.4 nM, the koff turned out to be 0.00074 s⁻¹ and the kon amounted to 540000 M⁻¹ s⁻¹. The “kd (pH 5.8)/kd (pH 7.4)” value in experiment [3] turned out to be 2.59.

B3: H170/L82 (antibody, IgG1, V domains shown)
VH: B2 VH with D32H, N59H, S63H, S99V, T103I, Y108H
VL: B2 VL with H28D
notes: expressed and purified as IgG (IgG1); also called H170/L82-IgG1
For B3, in experiment [2], the Kd came out at 1.6 nM, the koff amounted to 0.0011 s⁻¹ and the on-rate constant (kon) turned out to be 680000 M⁻¹ s⁻¹.

B4: Fv4-IgG1 (antibody)
heavy: not shown
light: DIQMTQSPSSLSASVGDSVTITCQASTDISSHLNWYQQKPGKAPELLIYYGSHLLSGVPSRFSGSGSGTDFTFTISSLEAEDAATYYCGQGNRLPYTFGQGTKVEIERTVAAPSVFIFPPSDEQLKSGTASVVCLLNNFYPREAKVQWKVDNALQSGNSQESVTEQDSKDSTYSLSSTLTLSKADYEKHKVYACEVTHQGLSSPVTKSFNRGEC
notes: VH3-IgG1 / VL3-CK
For the molecule B4, in experiment [1], the Kd stood at 1.4 nM, the off-rate constant (koff) is 0.001 s⁻¹ and the on-rate constant (kon) was determined as 720000 M⁻¹ s⁻¹. The “kd (pH 5.8)/kd (pH 7.4)” value in experiment [3] is 5.56.
